Measured values published in the supplement of paper PMC9112550, “Optimization of the antimicrobial peptide Bac7 by deep mutational scanning” (BMC Biology, 2022).
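Note: peptides expressed intracellularly from a pBAD plasmid library in pooled LB shake-flask culture, induced with 0.3% L-arabinose, DNA abundance read by NGS, three biological replicates, DESeq2 with apeglm shrinkage.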

The sequences below were run on Escherichia coli TOP10 (assay: shrunken log2 fold change of peptide-encoding DNA abundance (4.5 h post-induction vs induction); higher = less antimicrobial activity (less host growth inhibition)). Conditions: time post-induction: 4.5 h; library: site-saturation at positions 5, 18, 19, 20.
For RRIRKRPPRLPRPRPRPYDAPRP, the “shrunken log2 fold change” value was -0.252. With RRIRQRPPRLPRPRPRPDSQPRP the “shrunken log2 fold change” value was 0.0234. In the case of RRIRDRPPRLPRPRPRPSHRPRP, the “shrunken log2 fold change” value is reported as 0.102. With RRIRMRPPRLPRPRPRPQVWPRP the “shrunken log2 fold change” value was 0.399. With RRIRRRPPRLPRPRPRPVESPRP the “shrunken log2 fold change” value was 0.126. For RRIRERPPRLPRPRPRPCILPRP, the “shrunken log2 fold change” value was -0.425. For RRIRWRPPRLPRPRPRPVHGPRP, the “shrunken log2 fold change” value was 0.492. In the case of RRIRCRPPRLPRPRPRPCAIPRP, the “shrunken log2 fold change” value is reported as 0.651. With RRIRIRPPRLPRPRPRPCLMPRP the “shrunken log2 fold change” value was -0.601. For RRIRCRPPRLPRPRPRPEWIPRP, the “shrunken log2 fold change” value was -0.151. For RRIRFRPPRLPRPRPRPHARPRP, the “shrunken log2 fold change” value was 0.285. RRIRARPPRLPRPRPRPRACPRP was tested, and the “shrunken log2 fold change” value was 0.447. In the case of RRIRNRPPRLPRPRPRPYPGPRP, the “shrunken log2 fold change” value is reported as -0.123. With RRIRGRPPRLPRPRPRPHSQPRP the “shrunken log2 fold change” value was 0.322. In the case of RRIRNRPPRLPRPRPRPGIMPRP, the “shrunken log2 fold change” value is reported as -0.186. RRIRFRPPRLPRPRPRPDDPPRP was tested, and the “shrunken log2 fold change” value was 0.212. In the case of RRIRHRPPRLPRPRPRPAGMPRP, the “shrunken log2 fold change” value is reported as -0.411. RRIRDRPPRLPRPRPRPNNAPRP was tested, and the “shrunken log2 fold change” value was -0.204. RRIRSRPPRLPRPRPRPIHYPRP was tested, and the “shrunken log2 fold change” value was -0.386. For RRIRKRPPRLPRPRPRPMRWPRP, the “shrunken log2 fold change” value was 1.41. For RRIRMRPPRLPRPRPRPFVHPRP, the “shrunken log2 fold change” value was -0.178. In the case of RRIRMRPPRLPRPRPRPWFYPRP, the “shrunken log2 fold change” value is reported as -0.418. RRIRNRPPRLPRPRPRPKWYPRP was tested, and the “shrunken log2 fold change” value was -0.517. For RRIRGRPPRLPRPRPRPTKIPRP, the “shrunken log2 fold change” value was 0.462. For RRIRIRPPRLPRPRPRPNKVPRP, the “shrunken log2 fold change” value was -0.393. In the case of RRIRDRPPRLPRPRPRPSHVPRP, the “shrunken log2 fold change” value is reported as -0.401. With RRIRQRPPRLPRPRPRPVAGPRP the “shrunken log2 fold change” value was 0.0467. RRIRLRPPRLPRPRPRPSDAPRP was tested, and the “shrunken log2 fold change” value was 0.0959. In the case of RRIRTRPPRLPRPRPRPTKPPRP, the “shrunken log2 fold change” value is reported as 0.0402. RRIRDRPPRLPRPRPRPAWMPRP was tested, and the “shrunken log2 fold change” value was -0.0284. With RRIRIRPPRLPRPRPRPKWVPRP the “shrunken log2 fold change” value was -0.098. RRIRGRPPRLPRPRPRPPSAPRP was tested, and the “shrunken log2 fold change” value was 1.07. For RRIRWRPPRLPRPRPRPSIGPRP, the “shrunken log2 fold change” value was -0.175. RRIRMRPPRLPRPRPRPKFAPRP was tested, and the “shrunken log2 fold change” value was 0.51. With RRIRRRPPRLPRPRPRPCVVPRP the “shrunken log2 fold change” value was 0.152. In the case of RRIRKRPPRLPRPRPRPVNDPRP, the “shrunken log2 fold change” value is reported as 0.00208. With RRIRDRPPRLPRPRPRPVWIPRP the “shrunken log2 fold change” value was -0.125. RRIRKRPPRLPRPRPRPPNRPRP was tested, and the “shrunken log2 fold change” value was 0.151. With RRIRSRPPRLPRPRPRPIKYPRP the “shrunken log2 fold change” value was -0.654. In the case of RRIRIRPPRLPRPRPRPFLYPRP, the “shrunken log2 fold change” value is reported as -0.84. RRIRSRPPRLPRPRPRPFVTPRP was tested, and the “shrunken log2 fold change” value was -0.0434. For RRIRHRPPRLPRPRPRPQLVPRP, the “shrunken log2 fold change” value was -0.0576. For RRIRRRPPRLPRPRPRPKIRPRP, the “shrunken log2 fold change” value was 0.0898. RRIRVRPPRLPRPRPRPLMLPRP was tested, and the “shrunken log2 fold change” value was -0.202. RRIRERPPRLPRPRPRPWNFPRP was tested, and the “shrunken log2 fold change” value was -0.0838. RRIRSRPPRLPRPRPRPISLPRP was tested, and the “shrunken log2 fold change” value was 1.99. RRIRYRPPRLPRPRPRPLYEPRP was tested, and the “shrunken log2 fold change” value was -0.562. For RRIRWRPPRLPRPRPRPACLPRP, the “shrunken log2 fold change” value was 0.521. RRIRARPPRLPRPRPRPMMTPRP was tested, and the “shrunken log2 fold change” value was 0.331. With RRIRNRPPRLPRPRPRPAMLPRP the “shrunken log2 fold change” value was -0.145. With RRIRDRPPRLPRPRPRPVYLPRP the “shrunken log2 fold change” value was -0.219. RRIRGRPPRLPRPRPRPANDPRP was tested, and the “shrunken log2 fold change” value was 0.902. For RRIRYRPPRLPRPRPRPAEVPRP, the “shrunken log2 fold change” value was -0.0361. With RRIRRRPPRLPRPRPRPFTSPRP the “shrunken log2 fold change” value was -0.0327. RRIRDRPPRLPRPRPRPMGFPRP was tested, and the “shrunken log2 fold change” value was 0.258. With RRIRNRPPRLPRPRPRPWKLPRP the “shrunken log2 fold change” value was -0.0134. For RRIRGRPPRLPRPRPRPPINPRP, the “shrunken log2 fold change” value was 0.21. For RRIRHRPPRLPRPRPRPEITPRP, the “shrunken log2 fold change” value was -0.0206. For RRIRYRPPRLPRPRPRPVFTPRP, the “shrunken log2 fold change” value was -0.574. With RRIRFRPPRLPRPRPRPYRDPRP the “shrunken log2 fold change” value was -0.0081. For RRIRQRPPRLPRPRPRPMMMPRP, the “shrunken log2 fold change” value was -0.327. For RRIRFRPPRLPRPRPRPAYHPRP, the “shrunken log2 fold change” value was -0.00712. In the case of RRIRNRPPRLPRPRPRPFDHPRP, the “shrunken log2 fold change” value is reported as -0.0345. RRIRERPPRLPRPRPRPVWIPRP was tested, and the “shrunken log2 fold change” value was -0.556. With RRIRCRPPRLPRPRPRPEVRPRP the “shrunken log2 fold change” value was 0.24. In the case of RRIRWRPPRLPRPRPRPTSSPRP, the “shrunken log2 fold change” value is reported as 0.23. With RRIRRRPPRLPRPRPRPVSYPRP the “shrunken log2 fold change” value was 0.241. RRIRARPPRLPRPRPRPSDSPRP was tested, and the “shrunken log2 fold change” value was -0.197. For RRIRCRPPRLPRPRPRPRVGPRP, the “shrunken log2 fold change” value was 0.472. For RRIRLRPPRLPRPRPRPLCIPRP, the “shrunken log2 fold change” value was -0.569. In the case of RRIRDRPPRLPRPRPRPCDGPRP, the “shrunken log2 fold change” value is reported as -0.0192. With RRIRPRPPRLPRPRPRPAHYPRP the “shrunken log2 fold change” value was 0.02. In the case of RRIRMRPPRLPRPRPRPREYPRP, the “shrunken log2 fold change” value is reported as 0.314. RRIRHRPPRLPRPRPRPANPPRP was tested, and the “shrunken log2 fold change” value was 0.0212. With RRIRGRPPRLPRPRPRPNNMPRP the “shrunken log2 fold change” value was -0.317.
